Results on 31 sequences are retold here after the supplement of paper PMC9170038.

This series relates to MS2 coat protein. The series can be described thus: apparent KD of MS2 coat protein; designed switch direction (-1 OFF switch, 1 ON switch): -1; higher = weaker reporter binding. Summed up:
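The buffer was Tris-HCl pH 7.5 with KCl, MgCl2, BSA, DTT, tRNA and Tween-20. In it, SNAP-549-labelled MS2 coat protein was titrated in doubling steps from 0.7 or 1.5 nM to 3 µM over chip-bound RNA switches transcribed by stalled E. coli RNA polymerase on Illumina chips. Apparent KD is the per-design median over clusters of curve fits to normalised fluorescence.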

Setting [1] is: input ligand: microRNA oligo, concentration not stated.
Where [2] appears, read: Eterna round: R95, input ligand: microRNA oligo, concentration not stated.
Setting [3] is: Eterna round: R95, input ligand: FMN 200 uM.
Setting [4] is: Eterna round: R95, input ligand: none.

Consider “ACAUUCUGAGGAUAUGUGCGCACUGACAUGAGGAUCACCCAUGUCCGAAUGUCCGAGACGACAGAAGGCAGUGAAU [Eternabot (L2) Solution 72] (Eterna round: R97, puzzle: Exclusion 5)”, for which the “apparent KD of MS2 coat protein” value runs as follows: (input ligand: FMN 200 uM) 355 nM; (input ligand: none) 101 nM.

On to “ACAUUGGUAGUGAGGAUAUCGGUGAGAUAGAAUGACGAGAAGGCACAUGAGGAUCACCCAUGUAAGAUUGGGCA [JR_BMEx4_Sub042] (Eterna round: R97, puzzle: Brourd's mod of Exclusion 4)”, for which the “apparent KD of MS2 coat protein” value is, setting by setting: (input ligand: FMN 200 uM) 286 nM; (input ligand: none) 251 nM.

Consider “ACCAAGCUAUGCACGUCUGACAUGAGGAUCACCCAUGUAGCCGGUCUCGGAAGGAGACAGGCUCCAGGUGGCUCAGA [Eternabot (Original) Solution 37] (Eterna round: R97, puzzle: Sensor, turn-off variant 1)”, for which the “apparent KD of MS2 coat protein” value is 683 nM (input ligand: FMN 200 uM) and 667 nM (input ligand: none).

Take “ACCAGCAUACGGAGAUCCAACAUGAGGAUCACCCAUGUCUGGAAAGCUUUUUGCUUGUCUUAUCCUCCUCUGUGUGU [Design #5] (Eterna round: R97, puzzle: Sensor, turn-off variant 1)”: the “apparent KD of MS2 coat protein” value (input ligand: FMN 200 uM) worked out at 30.2 nM and the “apparent KD of MS2 coat protein” value (input ligand: none) is 32.2 nM.

With “ACCGCUUCUGCAGGAUAUGGACAACAUGAGGAUCACCCAUGUGAUCUAUAAAGUAGUGGUGGCGUCCAGAAGGGCAGAUUAAGG [Maamabi] (Eterna round: R96, puzzle: Exclusion NG 2)”, the “apparent KD of MS2 coat protein” value was 197 nM (input ligand: FMN 200 uM), 48.2 nM under setting [1] and 96.3 nM (input ligand: none).

In the case of “ACCUCACAUGAGGAUCACCCAUGUCAGGAUAUACAAACCGUGAUAAGACACGGUCGUAGUAGAAGGGACUAUGG [Xerereonte] (puzzle: Exclusion 1)”, the “apparent KD of MS2 coat protein” value under setting [2] was 98.8 nM.

For the sequence “ACCUCACAUGAGGAUCACCCAUGUCAGGAUAUCUUUUAAAACACCAAUCGUGUCGCUGAGAGAAGGGACAUUAA [EX1 #23] (Eterna round: R97, puzzle: Exclusion 1)”, the “apparent KD of MS2 coat protein” value came out at 20.5 nM (input ligand: FMN 200 uM) and 16 nM (input ligand: none).

For the sequence “ACCUCACAUGAGGAUCACCCAUGUCAGGAUAUGUACCUGGCCAAGACAAAAGCCAGAAGCAGAAGGGACUGCGG [Enrionerdi] (puzzle: Exclusion 1)”, the “apparent KD of MS2 coat protein” value runs as follows: under setting [3], 72.5 nM; under setting [2], 129 nM; under setting [4], 93.6 nM.

Take “ACCUGGUGAGGAUAUGUUGGGAAUGAUCCUUUCGGAUUGACACAGAAGGCACAUGAGGAUCACCCAUGUGGGUG [Eternabot (L1) Solution 70] (Eterna round: R97, puzzle: Exclusion 4)”: the “apparent KD of MS2 coat protein” value (input ligand: FMN 200 uM) stood at 332 nM and the “apparent KD of MS2 coat protein” value (input ligand: none) was found to be 591 nM.

Take “ACGAGCAGACGGAGAUCCAACAUGAGGAUCACCCAUGUCUGGAAAGCUUUUUGCUUGUCUUAUCCUCCUCUGUUAGC [Design #10] (Eterna round: R97, puzzle: Sensor, turn-off variant 1)”: the “apparent KD of MS2 coat protein” value reads like this: (input ligand: FMN 200 uM) 12.4 nM; (input ligand: none) 11.9 nM.

Turning to “ACGAUGACAGAAAGAAGUCAAAAGACAUGAGGAUCACCCAUGUAGGAUAUGGCUACGAAAAGUAGUCAGAAGGACUUGUCAUCA [Omei Exc(NG) 3 Av2] (Eterna round: R96, puzzle: Exclusion NG 3)”, the “apparent KD of MS2 coat protein” value runs as follows: (input ligand: FMN 200 uM) 13.1 nM; under setting [1], 9.48 nM; (input ligand: none) 14.3 nM.

For “ACGAUGACCGAAAGAUGUCAAAAGACAUGAGGAUCACCCAUGUAGGAUAUGGCUACGAAAAGUAGUCAGAAGGACAUGUCAUCA [Omei Exc(NG) 3 A] (Eterna round: R96, puzzle: Exclusion NG 3)”, the “apparent KD of MS2 coat protein” value by setting is: (input ligand: FMN 200 uM) 15.1 nM; under setting [1], 12.3 nM; (input ligand: none) 14.8 nM.

With “ACGCCGCAAGGAUAUACUUGCGGUGAUGUUCGAGUUCUUCUACUUGAGGAUCACCCAAGUAGAAGGUGCGAUGG [jl-ex2.4.61 ViennaUCT mod] (Eterna round: R97, puzzle: Exclusion 2)”, the “apparent KD of MS2 coat protein” value was determined as 13.7 nM (input ligand: FMN 200 uM) and 13.8 nM (input ligand: none).

Turning to “ACGGGUAAGUAAGGAUAUCCAACAGGCUGAUUUCAGUCUGAACAUGAGGAUCACCCAUGUGGGUGGGAGAAGGUACUCUCCCGC [Atbienarza] (Eterna round: R96, puzzle: Exclusion NG 2)”, the “apparent KD of MS2 coat protein” value by setting is: (input ligand: FMN 200 uM) 107 nM; under setting [1], 86.3 nM; (input ligand: none) 114 nM.

On to “ACGUACAAGCCGAUCCUAAACAUGAGGAUCACCCAUGUGCUCGUUUUGUAAAGUACUAUCACGAAAGUGAUAGUACA (Eterna round: R97, puzzle: Sensor, turn-off variant 1)”, for which the “apparent KD of MS2 coat protein” value stood at 114 nM (input ligand: FMN 200 uM) and 122 nM (input ligand: none).

Turning to “ACGUGAUAUCUGUCGGUGGACAUGAGGAUCACCCAUGUAAGCUUUCUGCUCGUCUUAUAACCCGGUGACAGACCUUC [Diteerquus] (puzzle: Sensor v3, turn-off variant 1)”, the “apparent KD of MS2 coat protein” value is 45.3 nM under setting [3], 310 nM under setting [2] and 56.9 nM under setting [4].

With “ACUAGAUGAGGAUAUACACAUUUUAGUGUUCCUCUAGAUUAACAUGAGGAUCACCCAUGUAGAAGGCAUCAAUU [Exclusion 2 - 11] (Eterna round: R96, puzzle: Exclusion 2)”, the “apparent KD of MS2 coat protein” value (input ligand: FMN 200 uM) was 294 nM, the “apparent KD of MS2 coat protein” value under setting [1] worked out at 52.8 nM and the “apparent KD of MS2 coat protein” value (input ligand: none) turned out to be 63 nM.

On to “ACUAGAUGAGGAUAUACACAUUUUAGUGUUCCUCUAGAUUAACAUGAGGAUCACCCAUGUAGAAGGCAUCAAUU [Exclusion 2 - 11] (puzzle: Exclusion 2)”, for which the “apparent KD of MS2 coat protein” value under setting [2] came out at 57.8 nM.

In the case of “ACUAGGAGAUUAGGAUAUCUAUCUCACAUGAGGAUCACCCAUGUAUAAGCGUCCUAAAGGUGGAUGGAGAAGGGAUGUCCGAAG [Eternabot solution 13] (Eterna round: R96, puzzle: Exclusion NG 2)”, the “apparent KD of MS2 coat protein” value by setting is: (input ligand: FMN 200 uM) 14.1 nM; under setting [1], 13.8 nM; (input ligand: none) 17.5 nM.

As for “ACUAGGCGAGGAUAUACAUGCUUAACGCAGGAAAAGCUGCGACAUGAGGAUCACCCAUGUAGAAGGCGCAAAUA [Xege] (Eterna round: R96, puzzle: Exclusion 2)”, the “apparent KD of MS2 coat protein” value worked out at 78.1 nM (input ligand: FMN 200 uM), 14.6 nM under setting [1] and 20 nM (input ligand: none).

As to “ACUAGGCGAGGAUAUACAUGCUUAACGCAGGAAAAGCUGCGACAUGAGGAUCACCCAUGUAGAAGGCGCAAAUA [Xege] (puzzle: Exclusion 2)”, the “apparent KD of MS2 coat protein” value under setting [2] is 15.4 nM.

Consider “ACUCCUCCUGUUAGGAUAUGCAUCGGGCUUCCGCAGCAGAAGGAACAUGAGGAUCACCCAUGUCAAAUAAAAUC (Eterna round: R97, puzzle: Brourd's mod of Exclusion 4)”, for which the “apparent KD of MS2 coat protein” value runs as follows: (input ligand: FMN 200 uM) 243 nM; (input ligand: none) 26.3 nM.

With “ACUCCUCCUGUUAGGAUAUGCAUCGGGCUUCCGCAGCAGAAGGAACAUGAGGAUCACCCAUGUCAAAUAAAAUC [Inxebexe] (Eterna round: R96, puzzle: Brourd's mod of Exclusion 4)”, the “apparent KD of MS2 coat protein” value reads like this: (input ligand: FMN 200 uM) 153 nM; under setting [1], 20.7 nM; (input ligand: none) 26.9 nM.

For “ACUCCUCCUGUUAGGAUAUGCAUCGGGCUUCCGCAGCAGAAGGAACAUGAGGAUCACCCAUGUCAAAUAAAAUC [Inxebexe] (puzzle: Brourd's mod of Exclusion 4)”, the “apparent KD of MS2 coat protein” value under setting [2] was found to be 18.9 nM.

With “ACUGGAGCAGGAUAUACAUUCGUGCUUCGGCACGUAAGAUCACAUGAGGAUCACCCAUGUAGAAGGGCUCCAGU [E2/5-D1] (Eterna round: R97, puzzle: Exclusion 2)”, the “apparent KD of MS2 coat protein” value by setting is: (input ligand: FMN 200 uM) 970 nM; (input ligand: none) 122 nM.

“ACUGUUGCAGGAUAUAUGGUGCUAGACAUGAGGAUCACCCAUGUAGGCCUUGUCUAGCAGGUAGAAGGGCACCCAC [Eternabot (L1) Solution 94] (Eterna round: R97, puzzle: Exclusion 5)”: the “apparent KD of MS2 coat protein” value runs as follows: (input ligand: FMN 200 uM) 503 nM; (input ligand: none) 224 nM.

For “ACUUACUGAGGAUAUACAUAGAUUUACAUGAGGAUCACCCAUGUUCCUCUAUGUAUAAAUGUAGAAGGCAGAAGUU [Mat - Exclusion 5 - JL Mod - D56] (Eterna round: R97, puzzle: Exclusion 5)”, the “apparent KD of MS2 coat protein” value by setting is: (input ligand: FMN 200 uM) 107 nM; (input ligand: none) 21.5 nM.

Turning to “ACUUAUAGAGGAUAUACAGAAUAUUACAUGAGGAUCACCCAUGUUCUUCAAUGUAUAUAUGUAGAAGGCUAAGGAA [JL-ex5-4.22 Malcolm mod] (Eterna round: R97, puzzle: Exclusion 5)”, the “apparent KD of MS2 coat protein” value is, setting by setting: (input ligand: FMN 200 uM) 252 nM; (input ligand: none) 88.8 nM.

For the sequence “ACUUAUCAUGUAGGAUAUGCGUGGCGAAGCUAUGCAGAAGGACAUGAGGAUCACCCAUGUUUUAGCGUCUGCGUACAGAUGCGU [JL ENG1 1.45] (Eterna round: R96, puzzle: Exclusion NG 1)”, the “apparent KD of MS2 coat protein” value under setting [1] worked out at 39 nM.

Regarding “AGAAAGCAAGGAUAUACGAGGAGAAGGUGGAAAGUUAAAGGACAUGAGGAUCACCCAUGUAGAAGGUGCGAGAA [JR_Exclu2_Sub043] (puzzle: Exclusion 2)”, the “apparent KD of MS2 coat protein” value under setting [3] was found to be 79.3 nM, the “apparent KD of MS2 coat protein” value under setting [2] turned out to be 46.2 nM and the “apparent KD of MS2 coat protein” value under setting [4] worked out at 55.4 nM.

For “AGAAAGGAAGGAUAUACAAGAAAGCCGGGCAACGUCUCAGAACAUGAGGAUCACCCAUGUAGAAGGUCCAGGAA [Tisoiste] (puzzle: Exclusion 2)”, the “apparent KD of MS2 coat protein” value worked out at 92.3 nM under setting [3], 32.6 nM under setting [2] and 32.8 nM under setting [4].
